Measured values from patent US20230331869A1.

Columns and labels:
Assay in all cases: fibrinogen 15mer peptide array
[1] = target: T1, FIBA 218-232
T1 sequence (peptide): FKSQLQKVPPEWKAL

[2] = target: T2, FIBA 507-521
T2 sequence (peptide): FPGFFSPMLGEFVSE

[3] = target: T3, FIBA 514 528
T3 sequence (peptide): FSPMLGEFVSETESR

[4] = target: T4, FIBA 602-616
T4 sequence (peptide): RGHAKSRPVRGIHTS

[5] = target: T5, FIBG 123-137
T5 sequence (peptide): NLKEKVAQLEAQCQE

[6] = target: T6, FIBG 15-29
T6 sequence (peptide): FGSYCPTTCGIADFL

[7] = target: T7, FIBG 202-216
T7 sequence (peptide): DFKKNWIQYKEGFGH

[8] = target: T8, FIBG 206-220
T8 sequence (peptide): NWIQYKEGFGHLSPT

[9] = target: T9, FIBG 214-228
T9 sequence (peptide): FGHLSPTGTTEFWLG

[10] = target: T10, FIBG 287-301
T10 sequence (peptide): GDAFDGFDFGDDPSD

[11] = target: T11, FIBG 303-317
T11 sequence (peptide): FFTSHNGMQFSTWDN

[12] = target: T12, FIBG 335-349
T12 sequence (peptide): WMNKCHAGHLNGVYY

[13] = target: T13, FIBG 7-21
T13 sequence (peptide): NCCILDERFGSYCPT

[14] = substrate: T14, FIBB 107-121
T14 sequence (peptide): VSQTSSSSFQYMYLL

[15] = substrate: T15, FIBB 139-153
T15 sequence (peptide): VNEYSSELEKHQLYI

[16] = substrate: T16, FIBB 191-205
T16 sequence (peptide): EYCRTPCTVSCNIPV

[17] = substrate: T17, FIBB 235-249
T17 sequence (peptide): PYRVYCDMNTENGGW

[18] = substrate: T18, FIBB 258-262
T18 sequence (peptide): SVDFGRKWDPYKQGF

[19] = substrate: T19, FIBB 283-297
T19 sequence (peptide): KNYCGLPGEYWLGND

[20] = substrate: T20, FIBB 315-329
T20 sequence (peptide): EDWKGDKVKAHYGGF

[21] = substrate: T21, FIBB 319-333
T21 sequence (peptide): GDKVKAHYGGFTVQN

[22] = substrate: T22, FIBB 391-405
T22 sequence (peptide): RKQCSKEDGGGWWYN

[23] = substrate: T23, FIBB 395-409
T23 sequence (peptide): SKEDGGGWWYNRCHA

[24] = substrate: T24, FIBB 407-421
T24 sequence (peptide): CHAANPNGRYYWGGQ

[25] = substrate: T25, FIBB 415-429
T25 sequence (peptide): RYYWGGQYTWDMAKH

[26] = substrate: T26, FIBB 427-431
T26 sequence (peptide): AKHGTDDGVVWMNWK

[27] = substrate: T27, FIBB 63-77
T27 sequence (peptide): GGCLHADPDLGVLCP

[28] = substrate: T28, FIBB 71-85
T28 sequence (peptide): DLGVLCPTGCQLQEA

signal intensity (RLU) [1]: 6880 RLU
signal intensity (RLU) [2]: 3370 RLU
signal intensity (RLU) [3]: 5030 RLU
signal intensity (RLU) [4]: 2570 RLU
signal intensity (RLU) [5]: 3130 RLU
signal intensity (RLU) [6]: 3150 RLU
signal intensity (RLU) [7]: 9080 RLU
signal intensity (RLU) [8]: 6580 RLU
signal intensity (RLU) [9]: 8260 RLU
signal intensity (RLU) [10]: 11400 RLU
signal intensity (RLU) [11]: 6750 RLU
signal intensity (RLU) [12]: 50000 RLU
signal intensity (RLU) [13]: 5760 RLU
signal intensity (RLU) [14]: 2930 RLU
signal intensity (RLU) [15]: 6790 RLU
signal intensity (RLU) [16]: 2790 RLU
signal intensity (RLU) [17]: 3610 RLU
signal intensity (RLU) [18]: 6910 RLU
signal intensity (RLU) [19]: 8780 RLU
signal intensity (RLU) [20]: 5070 RLU
signal intensity (RLU) [21]: 2670 RLU
signal intensity (RLU) [22]: 2980 RLU
signal intensity (RLU) [23]: 3470 RLU
signal intensity (RLU) [24]: 9200 RLU
signal intensity (RLU) [25]: 12900 RLU
signal intensity (RLU) [26]: 2640 RLU
signal intensity (RLU) [27]: 2780 RLU
signal intensity (RLU) [28]: 2550 RLU
B1: antibody G or 45-C1C3 antibody (antibody, V domains shown)
VH: EVQLVESGGGAVQPGRSLRLSCAASGVSFSNIGMHWVRQAPGKGLEWVALISSDGRHTHYADSVKGRFTISRDNSENTLYLQINGLRADDTAVYYCAKGLDTRARYMGKFYTFDYWGQGTLVTVSS
VL: DIQLTQSPSSLSASVGDRVTITCRASQNIGVNLNWYQQRPGKGPKLLVSSTFSLQSGVPSRFSASGAGTNFTLTISSLQPEDYVTYYCQQSYSSPFTFGPGTKVDIK
